Experiments:
[1] = molecular target: T1, SARS-CoV-2 spike protein on pseudotyped lentivirus (Wuhan Reference Pseudovirus) (SARS-CoV-2, UniProt P0DTC2 14-1273); experiment: cell-based or functional assay
[2] = molecular target: T2, recombinant SARS-CoV-2 RBD with C-terminal AviTag (SARS-CoV-2, UniProt P0DTC2 319-541); experiment: ELISA, competition with coated ACE2-Fc for RBD
[3] = molecular target: T2, recombinant SARS-CoV-2 RBD with …; experiment: BLI, biotinylated RBD on streptavidin biosensors; OR: over-range
[4] = molecular target: T2, recombinant SARS-CoV-2 RBD with …; experiment: BLI, biotinylated RBD on streptavidin biosensors; OR: over-range [Cont. 1]
[5] = molecular target: T3, SARS-CoV-2 Alpha Variant RBD (SARS-CoV-2 Alpha variant); experiment: ELISA, RBD coated
T3 construct: domain: RBD; coated on ELISA plates

[6] = molecular target: T4, SARS-CoV-2 Beta Variant RBD (SARS-CoV-2 Beta variant); experiment: ELISA, RBD coated
T4 construct: domain: RBD; coated on ELISA plates

[7] = molecular target: T5, SARS-CoV-2 Gamma Variant RBD (SARS-CoV-2 Gamma variant); experiment: ELISA, RBD coated
T5 construct: domain: RBD; coated on ELISA plates

[8] = molecular target: T1, SARS-CoV-2 spike protein on pseudotyped …; experiment: cell-based or functional assay; remark: listed apart in the source
[9] = molecular target: T1, SARS-CoV-2 spike protein on pseudotyped …; experiment: cell-based or functional assay; remark: listed apart in the source
[10] = molecular target: T1, SARS-CoV-2 spike protein on pseudotyped …; experiment: cell-based or functional assay; remark: listed apart in the source
[11] = molecular target: T2, recombinant SARS-CoV-2 RBD with …; experiment: ELISA, competition with coated ACE2-Fc for RBD [Cont. 1]
[12] = molecular target: T1, SARS-CoV-2 spike protein on pseudotyped …; experiment: cell-based or functional assay; remark: listed apart in the source
[13] = molecular target: T2, recombinant SARS-CoV-2 RBD with …; experiment: BLI, biotinylated RBD on streptavidin biosensors [Cont. 5]
[14] = molecular target: T2, recombinant SARS-CoV-2 RBD with …; experiment: ELISA, competition with coated ACE2-Fc for RBD [Cont. 5]
[15] = molecular target: T2, recombinant SARS-CoV-2 RBD with …; experiment: BLI, biotinylated RBD on streptavidin biosensors, global 1:1 fit
[16] = molecular target: T2, recombinant SARS-CoV-2 RBD with …; experiment: BLI, biotinylated RBD on streptavidin biosensors [Cont. 1]
[17] = molecular target: SARS-CoV-2 Gamma Variant spike protein on pseudotyped lentivirus (SARS-CoV-2 Gamma variant); experiment: cell-based or functional assay
[18] = molecular target: T2, recombinant SARS-CoV-2 RBD with …; experiment: BLI, biotinylated RBD on streptavidin biosensors; OR: over-range [Cont. 2]
[19] = molecular target: T2, recombinant SARS-CoV-2 RBD with …; experiment: BLI, biotinylated RBD on streptavidin biosensors [Cont. 2]
[20] = molecular target: T6, SARS-CoV-2 Delta Variant RBD (SARS-CoV-2 Delta variant); experiment: ELISA, RBD coated
T6 construct: domain: RBD; coated on ELISA plates

[21] = molecular target: SARS-CoV-2 Delta Variant spike protein on pseudotyped lentivirus (SARS-CoV-2 Delta variant); experiment: cell-based or functional assay
[22] = molecular target: T1, SARS-CoV-2 spike protein on pseudotyped …; experiment: cell-based or functional assay; remark: listed apart in the source

B1: PP807 MBP-R2C-B3-H6 (VHH)
VHH: QVQLVESGGGLVQPGGSLRLSCAASGTYASYETIAWYRQAPGKQREKVARITGAGSSFYADSVKGRFTISRDNAKNTVYLQMNSLKPEDTAVYYCNADSIPPALRAANTGYWGQGTQVTVSS
notes: Form: Monomer
[1]
  infectivity % under 10 ug/mL VHH treatment: 75.3%
[2]
  IC50: 148 nM
[3]
  Kd: ~950 nM

B2: PP811 MBP-R2D-D3-H6 (VHH)
VHH: QVQLVESGGGLVQPGGSLRLSCAASGHIFSINNAAWVRQAPGKSREGVATIHSGGGTYYSDSVKGRFTISRDNAKNTVYLQMNSLKPEDTAVYYCNAEVSTGAGSRGRVSDVYWGQGTQVTVSS
notes: Form: Monomer
[1]
  infectivity % under 10 ug/mL VHH treatment: 75.9%
[4]
  Kd: ~27000 nM

B3: PP1113 MBP-5HVZ-PAPA-RN-29-H6 (VHH)
VHH: QVQLVESGGGLVQPGGSLRLSCAASGYILSENLTAWFRQAPGKAREVVATVTSGDYTNYDDSVKGRFTISRDNAKNTVYLQMNSLKPEDTAVYYCAAGTSDWEVKWSHWGQGTQVTVSS
notes: Form: Dimer
[5]
  EC50: 0.72 nM
[6]
  EC50: 5.64 nM
[7]
  EC50: 3.37 nM
[1]
  infectivity % under 10 ug/mL VHH treatment: 6.25%
[8]
  Pseudovirus neutralization IC50: 7.09 nM
[9]
  Pseudovirus inhibition IC50 [Cont. 9]: 9.38 nM

B4: dimeric VHH (VHH-5HVZ-MBP) R2C-F6 (VHH)
VHH: QVQLVESGGGLVQPGGSLRLSCAASGRILAANIVHWYRQAPGKEREGVAGITTGGSNYYSDSVKGRFTISRDNAKNTVYLQMNSLKPEDTAVYYCNALGLGSASGSYESWGQGTQVTVSS
[10]
  Pseudovirus inhibition IC50 [Cont. 1]: 92.4 nM
[11]
  IC50: 6.5 nM
[4]
  Kd: ~0.96 nM

B5: R5D-D4 (competition ELISA sample) (VHH)
VHH: QVQLVESGGGLVQPGGSLRLSCAASGSDFTINAMHWFRQAPGKQREFVATITSTSSTAYRDSVKGRFTISRDNAKNTVYLQMNSLKPEDTAVYYCAAFAVRDADTAGWTARDYWGQGTQVTVSS
[12]
  Pseudovirus inhibition IC50 [Cont. 5]: 166 nM
[13]
  Kd: 130 nM
[14]
  IC50: 48.1 nM
[15]
  Kd: 130 nM

B6: dimeric VHH (VHH-5HVZ-MBP) R2C-G6 (VHH)
VHH: QVQLVESGGGLVQPGGSLRLSCAASGSIYKYSDVHWFRQAPGKAREAVALLTGAGTTIYGDSVKGRFTISRDNAKNTVYLQMNSLKPEDTAVYYCAAGQGFKATRTFDSWGQGTQVTVSS
[10]
  Pseudovirus inhibition IC50 [Cont. 1]: 134 nM
[16]
  Kd: 35.7 nM
[11]
  IC50: 3.9 nM

B7: PP1107 MBP-5HVZ-PAPA-RN-22-H6 (VHH)
VHH: QVQLVESGGGLVQPGGSLRLSCAASGSISEINLLHWFRQAPGKQREWVATMTSGGSTDYADSVKGRFTISRDNAKNTVYLQMNSLKPEDTAVYYCAADEFTKYGHGRYWGQGTQVTVSS
notes: Form: Dimer
[5]
  EC50: 0.28 nM
[6]
  EC50: 0.25 nM
[7]
  EC50: 0.18 nM
[1]
  infectivity % under 10 ug/mL VHH treatment: 34.3%
[8]
  Pseudovirus neutralization IC50: 32.9 nM
[17]
  Pseudovirus neutralization IC50: 0.649 nM
[9]
  Pseudovirus inhibition IC50 [Cont. 9]: 110 nM

B8: PP817 MBP-R5A-B3-H6 (VHH)
VHH: QVQLVESGGGLVQPGGSLRLSCAASGQLDRSNAMAWFRQAPGKGREWVASITSGASTQYADSVKGRFTISRDNAKNTVYLQMNSLKPEDTAVYYCAADRYRAIQRTQYSWGQGTQVTVSS
notes: Form: Monomer
[1]
  infectivity % under 10 ug/mL VHH treatment: 80%
[18]
  Kd: ~5170 nM

B9: PP814 MBP-R2E-F4-H6 (VHH)
VHH: QVQLVESGGGLVQPGGSLRLSCAASGETFSSNAMHWFRQAPGKGREFVAAITSGGNDNYSDSVKGRFTISRDNAKNTVYLQMNSLKPEDTAVYYCNAPATEDTSHYPRNYWGQGTQVTVSS
notes: Form: Monomer
[1]
  infectivity % under 10 ug/mL VHH treatment: 84.7%
[18]
  Kd: ~1600 nM

B10: PP815 MBP-R5A-A1-H6 (VHH)
VHH: QVQLVESGGGLVQPGGSLRLSCAASGAELSYTAIHWFRQAPGKQREFVATINSGGSSYYADSVKGRFTISRDNAKNTVYLQMNSLKPEDTAVYYCTALLDSTYDYWGQGTQVTVSS
notes: Form: Monomer
[1]
  infectivity % under 10 ug/mL VHH treatment: 84.4%
[18]
  Kd: ~2700 nM

B11: PP1140 MBP-4B0F-PAPA-R5d-B6-H6 (VHH)
VHH: QVQLVESGGGLVQPGGSLRLSCAASGRILAANIVHWYRQAPGKEREGVAGITSGGGSYYADSVKGRFTISRDNAKNTVYLQMNSLKPEDTAVYYCNALGLGQSSLYRSADPYDSWGQGTQVTVSS
notes: Form: Heptamer
[1]
  infectivity % under 10 ug/mL VHH treatment: 2.47%
[8]
  Pseudovirus neutralization IC50: 2.07 nM
[12]
  Pseudovirus inhibition IC50 [Cont. 5]: 7.04 nM

B12: PP813 MBP-R2E-D2-H6 (VHH)
VHH: QVQLVESGGGLVQPGGSLRLSCAASGHQLSTNATHWFRQAPGKNREFVASIGSGSSSYYADSVKGRFTISRDNAKNTVYLQMNSLKPEDTAVYYCTALGGDELDGMTYDYWGQGTQVTVSS
notes: Form: Monomer
[1]
  infectivity % under 10 ug/mL VHH treatment: 75.5%
[16]
  Kd: 100 nM

B13: PP810 MBP-R2D-A6-H6 (VHH)
VHH: QVQLVESGGGLVQPGGSLRLSCAASGSGASIGAMHWFRQAPGKGREWVASITSAGNTYYGDSVKGRFTISRDNAKNTVYLQMNSLKPEDTAVYYCNALAGANYESQWEEYNYWGQGTQVTVSS
notes: Form: Monomer
[1]
  infectivity % under 10 ug/mL VHH treatment: 77.5%
[11]
  IC50: 0.1 nM
[4]
  Kd: ~4600 nM

B14: PP803 MBP-R2A-F3-H6 (VHH)
VHH: QVQLVESGGGLVQPGGSLRLSCAASGSITSINWMHWFRQAPGKDREGVASISQTGRGSYADSVKGRFTISRDNAKNTVYLQMNSLKPEDTAVYYCAAASRTGTPYNYWGQGTQVTVSS
notes: Form: Monomer
[1]
  infectivity % under 10 ug/mL VHH treatment: 70.7%
[3]
  Kd: ~1900 nM

B15: PP846 MBP-R5D-G6-H6 (VHH)
VHH: QVQLVESGGGLVQPGGSLRLSCAASGRILAANIVHWYRQAPGKNREGVAGITSGGSTYYADSVKGRFTISRDNAKNTVYLQMNSLKPEDTAVYYCAAKPLGSPDDFDYWGQGTQVTVSS
notes: Form: Monomer
[1]
  infectivity % under 10 ug/mL VHH treatment: 77.1%
[13]
  Kd: 564 nM
[14]
  IC50: 7.5 nM

B16: PP821 MBP-R5A-D6-H6 (VHH)
VHH: QVQLVESGGGLVQPGGSLRLSCAASGNDWYINSAHWYRQAPGKEREFVASVSRGGSNNYRDSVKGRFTISRDNAKNTVYLQMNSLKPEDTAVYYCAALLETSSGDYTYWGQGTQVTVSS
notes: Form: Monomer
[1]
  infectivity % under 10 ug/mL VHH treatment: 76.7%
[19]
  Kd: 100 nM

B17: PP1150 MBP-5HVZ-PAPA-R5b-G1-H6 (VHH)
VHH: QVQLVESGGGLVQPGGSLRLSCAASGSIGQIVLVHWFRQAPGKQRELVAGITSPSSTYYADSVKGRFTISRDNAKNTVYLQMNSLKPEDTAVYYCNTELEGKTQGFTGKTVWYDYWGQGTQVTVSS
notes: Form: Dimer
[5]
  EC50: 20.1 nM
[20]
  EC50: 0.86 nM
[1]
  infectivity % under 10 ug/mL VHH treatment: 2.31%
[8]
  Pseudovirus neutralization IC50: 2.72 nM
[21]
  Pseudovirus neutralization IC50: 0.43 nM
[22]
  Pseudovirus inhibition IC50 [Cont. 3]: 2.33 nM

B18: MBP-5HVZ-R5B-G1-H6 (VHH)
VHH: B17 VHH
[22]
  Pseudovirus inhibition IC50 [Cont. 3]: 5.82 nM
